The text below walks through data of the supplement of paper PMC9112550, “Optimization of the antimicrobial peptide Bac7 by deep mutational scanning” (BMC Biology, 2022).

This data set has as its system Escherichia coli TOP10. In words: shrunken log2 fold change of peptide-encoding DNA abundance (4.5 h post-induction vs induction); higher = less antimicrobial activity (less host growth inhibition). The following applies: time post-induction: 4.5 h; library: site-saturation at positions 5, 18, 19, 20.
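Also: peptides expressed intracellularly from a pBAD plasmid library in pooled LB shake-flask culture, induced with 0.3% L-arabinose, DNA abundance read by NGS, three biological replicates, DESeq2 with apeglm shrinkage.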

Consider RRIRKRPPRLPRPRPRPKTQPRP, for which the “shrunken log2 fold change” value came out at 0.422. RRIRRRPPRLPRPRPRPMMAPRP: the “shrunken log2 fold change” value is 0.142. The same measure for RRIRLRPPRLPRPRPRPRYTPRP: -0.0696; for RRIRTRPPRLPRPRPRPIEVPRP: 0.131. The same measure for RRIRMRPPRLPRPRPRPKLLPRP: 0.0392; for RRIRCRPPRLPRPRPRPDAQPRP: 0.456. In the case of RRIRDRPPRLPRPRPRPMFLPRP, the “shrunken log2 fold change” value worked out at 0.0737. With RRIRFRPPRLPRPRPRPNEMPRP, the “shrunken log2 fold change” value was -0.0729. Turning to RRIRGRPPRLPRPRPRPIWCPRP, the “shrunken log2 fold change” value worked out at 0.0438. As to RRIRWRPPRLPRPRPRPCARPRP, the “shrunken log2 fold change” value was found to be 0.0277.

Consider RRIRCRPPRLPRPRPRPGNGPRP, for which the “shrunken log2 fold change” value turned out to be 0.217. Regarding RRIRERPPRLPRPRPRPHNNPRP, the “shrunken log2 fold change” value was found to be 0.486. As for RRIRHRPPRLPRPRPRPINIPRP, the figure is -1.01; as for RRIRLRPPRLPRPRPRPTDNPRP, -0.391.

With RRIRLRPPRLPRPRPRPFIVPRP, the “shrunken log2 fold change” value is -0.238. On to RRIRLRPPRLPRPRPRPTITPRP, for which the “shrunken log2 fold change” value is -0.0781. Turning to RRIRDRPPRLPRPRPRPFYYPRP, the “shrunken log2 fold change” value is -0.899. In the case of RRIRNRPPRLPRPRPRPNVSPRP, the “shrunken log2 fold change” value came out at 0.0376. On to RRIRWRPPRLPRPRPRPYWYPRP, for which the “shrunken log2 fold change” value was -1.33.

Take RRIRVRPPRLPRPRPRPGTEPRP: the “shrunken log2 fold change” value was determined as 0.0578.

On to RRIRLRPPRLPRPRPRPFKSPRP, for which the “shrunken log2 fold change” value is -0.209.

As for RRIRPRPPRLPRPRPRPFDCPRP, the “shrunken log2 fold change” value is -0.52.

Consider RRIRGRPPRLPRPRPRPKNVPRP, for which the “shrunken log2 fold change” value turned out to be 0.0302.

For the sequence RRIRWRPPRLPRPRPRPYNQPRP, the “shrunken log2 fold change” value was -0.807.

Turning to RRIRKRPPRLPRPRPRPIEHPRP, the “shrunken log2 fold change” value amounted to 0.332. In the case of RRIRHRPPRLPRPRPRPCADPRP, the “shrunken log2 fold change” value was -0.12. RRIRKRPPRLPRPRPRPAWVPRP: the “shrunken log2 fold change” value was 0.483. RRIRLRPPRLPRPRPRPWEAPRP: the “shrunken log2 fold change” value is -0.229. In the case of RRIRDRPPRLPRPRPRPSCLPRP, the “shrunken log2 fold change” value was -0.0009. As to RRIRIRPPRLPRPRPRPAGGPRP, the “shrunken log2 fold change” value stood at 0.3. Regarding RRIRMRPPRLPRPRPRPRSTPRP, the “shrunken log2 fold change” value came to 0.888. On to RRIRVRPPRLPRPRPRPIQDPRP, for which the “shrunken log2 fold change” value is -0.134.

In the case of RRIRARPPRLPRPRPRPTCEPRP, the “shrunken log2 fold change” value was determined as 0.723. Consider RRIRKRPPRLPRPRPRPRNHPRP, for which the “shrunken log2 fold change” value was 0.197. In the case of RRIRPRPPRLPRPRPRPPSCPRP, the “shrunken log2 fold change” value was -0.058. As to RRIRNRPPRLPRPRPRPVYFPRP, the “shrunken log2 fold change” value was -0.301. Regarding RRIRARPPRLPRPRPRPNACPRP, the “shrunken log2 fold change” value was -0.175. RRIRKRPPRLPRPRPRPEYLPRP: the “shrunken log2 fold change” value was -0.0659.

RRIRIRPPRLPRPRPRPCPEPRP: the “shrunken log2 fold change” value was -0.644.

As for RRIRNRPPRLPRPRPRPYNFPRP, the “shrunken log2 fold change” value was -0.176. Regarding RRIRDRPPRLPRPRPRPWHWPRP, the “shrunken log2 fold change” value was found to be 0.00118. On to RRIRNRPPRLPRPRPRPCLNPRP, for which the “shrunken log2 fold change” value was -0.0299.

In the case of RRIRARPPRLPRPRPRPVKHPRP, the “shrunken log2 fold change” value is 0.0139. As to RRIRGRPPRLPRPRPRPWIPPRP, the “shrunken log2 fold change” value is -0.429. As for RRIRVRPPRLPRPRPRPPHHPRP, the “shrunken log2 fold change” value amounted to 0.0413. Consider RRIRKRPPRLPRPRPRPFESPRP, for which the “shrunken log2 fold change” value worked out at 0.0457. As to RRIRLRPPRLPRPRPRPNFHPRP, the “shrunken log2 fold change” value was -0.301.

For RRIRARPPRLPRPRPRPWVQPRP, the “shrunken log2 fold change” value was -0.0652. As for RRIRARPPRLPRPRPRPGPCPRP, the “shrunken log2 fold change” value is 0.251.

Turning to RRIRRRPPRLPRPRPRPGHFPRP, the “shrunken log2 fold change” value was -0.204.

In the case of RRIRSRPPRLPRPRPRPCMQPRP, the “shrunken log2 fold change” value is -0.31.

With RRIRPRPPRLPRPRPRPWSHPRP, the “shrunken log2 fold change” value was -0.157. Consider RRIRKRPPRLPRPRPRPYPKPRP, for which the “shrunken log2 fold change” value came to 0.109. The same measure for RRIRERPPRLPRPRPRPAGLPRP: -0.0519; for RRIRSRPPRLPRPRPRPDYFPRP: -0.133. As for RRIRQRPPRLPRPRPRPRACPRP, the “shrunken log2 fold change” value was 0.344. Regarding RRIRKRPPRLPRPRPRPKINPRP, the “shrunken log2 fold change” value is -0.116. Turning to RRIRFRPPRLPRPRPRPYHWPRP, the “shrunken log2 fold change” value is -0.208.

For RRIRIRPPRLPRPRPRPEHTPRP, the “shrunken log2 fold change” value was -0.464.

As for RRIRFRPPRLPRPRPRPQAGPRP, the “shrunken log2 fold change” value was -0.0266.

As for RRIRNRPPRLPRPRPRPLAWPRP, the “shrunken log2 fold change” value turned out to be 0.00628. Regarding RRIRPRPPRLPRPRPRPCVWPRP, the “shrunken log2 fold change” value was determined as 0.0579. Take RRIRGRPPRLPRPRPRPGHTPRP: the “shrunken log2 fold change” value is 0.0237. Turning to RRIRHRPPRLPRPRPRPDALPRP, the “shrunken log2 fold change” value is 0.227. With RRIRMRPPRLPRPRPRPIHDPRP, the “shrunken log2 fold change” value was determined as 0.0367. In the case of RRIRQRPPRLPRPRPRPEWHPRP, the “shrunken log2 fold change” value was 0.33.

In the case of RRIRLRPPRLPRPRPRPDHWPRP, the “shrunken log2 fold change” value is 0.143. Turning to RRIRHRPPRLPRPRPRPDAAPRP, the “shrunken log2 fold change” value came out at 0.453. For RRIRKRPPRLPRPRPRPIRLPRP, the “shrunken log2 fold change” value was -0.0783. For the sequence RRIRGRPPRLPRPRPRPYCQPRP, the “shrunken log2 fold change” value is -0.32. For the sequence RRIRVRPPRLPRPRPRPPMCPRP, the “shrunken log2 fold change” value stood at 0.0598.

As to RRIRMRPPRLPRPRPRPEPIPRP, the “shrunken log2 fold change” value worked out at 0.0584.

Regarding RRIRVRPPRLPRPRPRPCREPRP, the “shrunken log2 fold change” value is -0.0897.

As to RRIRNRPPRLPRPRPRPLTLPRP, the “shrunken log2 fold change” value is -0.358. The same measure for RRIRLRPPRLPRPRPRPFETPRP: -0.241. Regarding RRIRDRPPRLPRPRPRPWQYPRP, the “shrunken log2 fold change” value is -0.482. RRIRMRPPRLPRPRPRPVMDPRP: the “shrunken log2 fold change” value came out at 0.025. The same measure for RRIRWRPPRLPRPRPRPNECPRP: -0.437; for RRIRCRPPRLPRPRPRPKHWPRP: 0.00902. With RRIRCRPPRLPRPRPRPYIRPRP, the “shrunken log2 fold change” value was -1.22. RRIRGRPPRLPRPRPRPTGYPRP: the “shrunken log2 fold change” value came to 0.559.

As for RRIRSRPPRLPRPRPRPTCMPRP, the “shrunken log2 fold change” value turned out to be 0.0286. As for RRIRVRPPRLPRPRPRPIDMPRP, the “shrunken log2 fold change” value is -0.0698. Turning to RRIRTRPPRLPRPRPRPCPSPRP, the “shrunken log2 fold change” value was -0.0705. Regarding RRIRGRPPRLPRPRPRPLMNPRP, the “shrunken log2 fold change” value was determined as 0.303. Turning to RRIRNRPPRLPRPRPRPNTIPRP, the “shrunken log2 fold change” value was -0.0529.

Consider RRIRHRPPRLPRPRPRPKAPPRP, for which the “shrunken log2 fold change” value was 0.0258.

For RRIRFRPPRLPRPRPRPKTHPRP, the “shrunken log2 fold change” value is -0.0208. The same measure for RRIRDRPPRLPRPRPRPRLWPRP: 0.842; for RRIRKRPPRLPRPRPRPQEKPRP: -0.0233; for RRIRFRPPRLPRPRPRPGIIPRP: -0.139. As for RRIRLRPPRLPRPRPRPEYQPRP, the “shrunken log2 fold change” value was -0.0351.

Turning to RRIRHRPPRLPRPRPRPHGKPRP, the “shrunken log2 fold change” value is -0.038. The same measure for RRIRSRPPRLPRPRPRPELTPRP: 0.316; for RRIRPRPPRLPRPRPRPMKKPRP: -0.0723; for RRIRLRPPRLPRPRPRPRHGPRP: 0.414. For RRIRTRPPRLPRPRPRPHGSPRP, the “shrunken log2 fold change” value was -0.01.

On to RRIRNRPPRLPRPRPRPIVGPRP, for which the “shrunken log2 fold change” value came to 0.003.

For RRIRFRPPRLPRPRPRPVWHPRP, the “shrunken log2 fold change” value is -0.0142. RRIRRRPPRLPRPRPRPAIDPRP: the “shrunken log2 fold change” value worked out at 0.193. Take RRIRTRPPRLPRPRPRPNNWPRP: the “shrunken log2 fold change” value is -0.12.

Regarding RRIRNRPPRLPRPRPRPWVKPRP, the “shrunken log2 fold change” value was -0.0802. Turning to RRIRVRPPRLPRPRPRPNGLPRP, the “shrunken log2 fold change” value is -0.0536.

Turning to RRIRWRPPRLPRPRPRPAKHPRP, the “shrunken log2 fold change” value turned out to be 0.192. In the case of RRIRSRPPRLPRPRPRPCPWPRP, the “shrunken log2 fold change” value was -0.115. As for RRIRKRPPRLPRPRPRPLVTPRP, the figure is 0.24; as for RRIRRRPPRLPRPRPRPCMWPRP, 0.313; as for RRIRNRPPRLPRPRPRPEHHPRP, -0.114.

On to RRIRQRPPRLPRPRPRPKWKPRP, for which the “shrunken log2 fold change” value was -0.0193. On to RRIRCRPPRLPRPRPRPCLCPRP, for which the “shrunken log2 fold change” value is -0.185. Take RRIRPRPPRLPRPRPRPINNPRP: the “shrunken log2 fold change” value was determined as 0.81. Turning to RRIRRRPPRLPRPRPRPEIEPRP, the “shrunken log2 fold change” value is 0.216. As to RRIRHRPPRLPRPRPRPNSWPRP, the “shrunken log2 fold change” value is 0.254.

In the case of RRIRKRPPRLPRPRPRPSFRPRP, the “shrunken log2 fold change” value is -0.294. For RRIRFRPPRLPRPRPRPDPRPRP, the “shrunken log2 fold change” value was determined as 0.182.

In the case of RRIRERPPRLPRPRPRPEETPRP, the “shrunken log2 fold change” value is -0.0248. Turning to RRIRDRPPRLPRPRPRPWFEPRP, the “shrunken log2 fold change” value was -0.175.

For RRIRHRPPRLPRPRPRPVWHPRP, the “shrunken log2 fold change” value is 0.0453.

RRIRARPPRLPRPRPRPSCDPRP: the “shrunken log2 fold change” value came out at 0.323. Take RRIRIRPPRLPRPRPRPDWYPRP: the “shrunken log2 fold change” value was -0.842.

RRIRKRPPRLPRPRPRPAGKPRP: the “shrunken log2 fold change” value was found to be 0.582. As for RRIRYRPPRLPRPRPRPKEDPRP, the figure is -0.122; as for RRIRVRPPRLPRPRPRPSHKPRP, -0.24; as for RRIRARPPRLPRPRPRPFHPPRP, -0.178. Take RRIRDRPPRLPRPRPRPSCNPRP: the “shrunken log2 fold change” value is -0.493.
